Test: soluble on expression in E. coli; label from the status in PepcDB or PDB records

| Sequence | soluble on expression in E. coli |
| --- | --- |
| SGNRGVVYLGSGKVEVQKIDYPKMQDPRGKKIEHGVILKVVSTNICGSDQHMVRGRTTAQVGLVLGHEITGEVIEKGRDVENLQIGDLVSVPFNVACGRCRSCKEMHTGVCLTVNPARAGGAYGYVDMGDWTGGQAEYVLVPYADFNLLKLPDRDKAMEKIRDLTCLSDILPTGYHGAVTAGVGPGSTVYVAGAGPVGLAAAASARLLGAAVVIVGDLNPARLAHAKAQGFEIADLSLDTPLHEQIAALLGEPEVDCAVDAVGFEARGHGHEGAKHEAPATVLNSLMQVTRVAGKIGIPGLYVTEDPGAVDAAAKIGSLSIRFGLGWAKSHSFHTGQTPVMKYNRALMQAIMWDRINIAEVVGVQVISLDDAPRGYGEFDAGVPKKFVIDPHKTFSAA | soluble |
| MLPLSLLKTAQNHPMLVELKNGETYNGHLVSCDNWMNINLREVICTSRDGDKFWRMPECYIRGSTIKYLRIPDEIIDMVKEEVVAKGRGRGGLQQQKQQKGRGMGGAGRGVFGGRGRGGIPGTGRGQPEKKPGRQAGKQ | soluble |
| MGSDKIHHHHHHMVGTDHVVHSLVACALCFKAVTLPLSSQTQILSGWGRTMPVQAKVVQPASVQQVQELVRQASPASLIARGLGRSYGDAAQLDGASAVEMGAFDQINLDLVKGSVTAGAGVSLNQLLRVIVPAGFFLPVTPGTRNVTIGGAIAADVHGKNHHVDGSFGNHLQRLLLVDGRGELRELTPSGKSSVDEIEQFWATVGGMGLTGIIVEATFSLIPISSSLISVNTARYHNLDELMAAMVASDSNYRYSVAWIDSLNAKGRGVLSCGDHAMAEQLPTSQQADPLVYDPKPLASAPTFLPVGLLNKLTVRAFNEAWFRKAPKQRLGELQTIGAYFHPLDGVQDWNRIYGPAGFLQYQFVVPDNASHLVLYTLEALRKIGTSSFLTVLKRFGPSNPGHLSFPMQGWTLAVDLPAAVPGLFEVLDHLDEHIAAENGRLYLAKDSRQSATILRRTYPRLEEWQQAREKLDPSKVFSSDMAIRTGL | not soluble |
| MVFGFTKRDRRVPDLSRYDYYYQNHEDYNKSPQLSAAAASAASAASPDRTNYSRSHSLVSHAPSIPRQRSSVKSPGRRLSTSSAAPPTSRAAAKQYSQKTYSLRSQRSGEYHLHPPGYTTNGSRMNSMTSGANVRRNYGKNKSTAGNNNDSRANSITVKTTQVTDPSGRTQSITKKTIRKINGYEYVETTTTTKNLVPLGDSQRHFDEFSENYMLQDDDILEEQASDNIHDIIEENETDNEKPYSPVSESHLQDDSELNVEKPDFPLGSYFHHKYSTDVMPLEEESSLSNFSDALDYIPPTHQTSSKYIHNKRKQASTTRRKKRPPAVKNAEAEAKKPLTEAEMYLKALEVAKRNVYHTDAASDNASAPLGSNKSRKSRMGQKMTLRSSSDSPTATANLVKSNVEVQPKRFTSSFFSRNTKSAPHEVHNHSVSTHFKSNKAVDPVPEPKSANTGLTDKEMYDQALKIAQARYYNSHGIQPEAVDNSTTAAKPRQVGVSHLGSTGSIPPNEQHYLGDSEIPVQSEVHEYEPIPLQKTKTTGSSKNKFKTMFDKVLQFSQENYGYQHKKEQGEQTPVTRNAEESFPAASISEGVTTAKPSSNEGVMTNPVVTDSPSPLQQQIDSTTASSNGQSQGNVPTSAVASTTRTRSPELQDNLKSSSSLLQDQTPQRQEDATDPTTSSTNELSAAEPTMVTSTHATKTIQAQTQDPPTKHKKSSFFTKLFKKKSSR | soluble |
| MGSDKIHHHHHHMTQEQTRPKHMAAGETPEQHAAFEARIARGEKIEPGDWMPAEYRRQLIRMISQHAHSEVVGMLPEGEWIARAPSLKRKTILMAKVQDEAGHGQYLYHAAETLGVTREEMLDALLTRKAKYSSIFNYPTLTWADVGMIGWLVDGAAIKNQTMLAGCSYGPYSRAMVRICSEETFHHKQGKEMMVLYAQGTPEQRQMAQDALNRWWWPAVQMLGPHDSDSPNTGALSKWGIKLKTNDEVRQEFINEHVPELLEAGLTIPDPDLHQDEAGNWVHGPIDWSEFWAVIKGEQGLGNERLATRQAAQDEGAWVREALEAYMARQAKGEAAD | not soluble |
| LEKMQAHGLDKVEYKVCTNPGMEPDSLNKIASGGELSRISLAIQMITAQKGSTPTLLFDEVDVGIGGSTAALVGKMLRKLGERLQVFCVTHQPQVAASAHHHFLVTKHSNNNQTFTHISLLKASDKIAEIARMMGGLTITEQTLSHAKELISLSNE | not soluble |
| EVQDVNDSSWKEFVLESEVPVMVDFWAPWCGPCKLIAPVIDELAKEYSGKIAVYKLNTDEAPGIATQYNIRSIPTVLFFKNGERKESIIGAVPKSTLTDSIEKYL | soluble |

— the DeepSol protein solubility set
